Assay [1] concerns the target scMad1^E–scMad2 complex. Kind of assay: ITC, Mps1-phosphorylated scBub1 fragment with scMad1^E–scMad2 complex. It is filed as binding, Saccharomyces cerevisiae. To be noted: 20°C, 25 mM HEPES pH 7.5, 150 mM NaCl, scMad1 proteins 20 µM in cell, scBub1 fragment 300 µM injected, read-out: Kd, dissociation constant (affinity). How it is done:
(§1) All isothermal titration calorimetry (ITC) assays were performed with a MicroCal Omega ITC200 titration calorimeter (GE Life Sciences) at 20°C. Recombinant scMad1^CTD protein or scMad1–scMad2 complexes were dialyzed into the HEPES Buffer I (25 mM HEPES, pH 7.5, 150 mM NaCl). Recombinant human Mad1^CTD protein was dialyzed into the HEPES Buffer II (25 mM HEPES, pH 7.5, 50 mM NaCl). For each titration, 300 μl of scMad1 proteins (20 µM) or human Mad1 (50 µM) were added to the calorimeter cell. The scBub1 phospho-peptides or purified scMps1-phosphorylated scBub1_449–530 fragment (300 µM) in the HEPES Buffer I or the human Bub1 phospho-peptides (500 µM) in the HEPES Buffer II were injected with an injection syringe in 19 2-μl portions. The raw data were processed and fitted with the NITPIC software package ([Keller et al., 2012]).
(In general: ITC needs no label: the signal is the heat of the interaction.)

For assay [2], the target named is T1, C-terminal domain (CTD) of scMad1 (Saccharomyces cerevisiae, UniProt P40957).
T1 sequence (P40957 633-749 limits assumed): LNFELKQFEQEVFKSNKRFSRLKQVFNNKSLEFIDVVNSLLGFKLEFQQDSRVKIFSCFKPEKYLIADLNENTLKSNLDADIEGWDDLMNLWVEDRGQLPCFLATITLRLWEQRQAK
Kind of assay: ITC, scBub1 fragment or phospho-peptides with scMad1 CTD. Type of assay: binding. To be noted: 20°C, 25 mM HEPES pH 7.5, 150 mM NaCl, scMad1 20 µM in cell, scBub1 phospho-peptide or fragment 300 µM injected, read-out: Kd, dissociation constant. How it is done: as §1

The subject of assay [3] is scMad1^E–scMad2 complex. Kind of assay: in vitro pull-down of scMad1^E–scMad2 by GST-scBub1 fragments. Type of assay: binding, Saccharomyces cerevisiae. To be noted: scBub1 fragments alone or co-expressed with scMps1 kinase domain. How it is done: Expression of GST-BubR1^N (residues 1–370), GST-Mad2, GST-scBub1 fragments, GST-Mad1, and GST-scMad1 fragments in BL21(DE3) was induced by 0.1 mM isopropyl β-D-1-thiogalactopyranoside (IPTG) at 16°C overnight, after the OD600 reached 0.8. Mad1 and scMad1 fragments (Mad1^E) containing the Mad2-interacting motif (MIM) were co-expressed with Mad2 and scMad2, respectively. Fragments of scBub1 were co-expressed with His6-scMps1 (the kinase domain; residues 440–720). […] After sonication, lysates were cleared by centrifugation at 4°C. Supernatants were filtered by 0.45 µm filter and incubated with pre-equilibrated Glutathione Sepharose 4B beads (GE Healthcare). Protein-bound beads were washed with 40 volumes of the wash buffer I. The proteins were then eluted with reduced glutathione (Sigma) or cleaved with the PreScission protease. Eluates were dialyzed to the QA buffer (25 mM Tris-HCl, pH 8.0, 20 mM NaCl, 3 mM DTT), loaded onto a Resource Q column (GE Healthcare), and then eluted with the QB buffer (25 mM Tris-HCl, pH 8.0, 1 M NaCl, 3 mM DTT). Peak fractions were pooled and further purified with a Superdex 200 size exclusion column (GE Healthcare). […]
Recombinant bait proteins or bacteria lysates containing bait proteins were incubated with the appropriate affinity beads. […] The bead-bound proteins were analyzed by Coomassie blue staining or Western blotting. […]

B1: Phosphorylated scBub1449–530: Mps1-phosphorylated scBub1 fragment containing the CM (protein)
chain: SRSPTVTAFSKDAINEVFSMFNQHYSTPGALLDGDDTTTSKFNVFENFTQEFTAKNIEDLTEVKDPKQETVSQQTTSTNETN
modifications: phosphothreonine at 453, phosphothreonine at 455, phosphoserine at 458 (mass spectrometry; co-expressed with scMps1); left off: GST, N-terminal, state not stated
notes: Mps1-phosphorylated scBub1 fragment containing the CM
The term Kd denotes the equilibrium constant for the complex coming apart. Regarding B1, the figures for the Kd (at scMad1^E–scMad2 complex [1]; in assay [2]) were 2210 nM and 2930 nM, respectively.

B2: scBub1_369–608: scBub1 fragment co-expressed with the kinase domain of scMps1 in bacteria (protein)
chain: RKLDVLVERRQDLPSSQPPVVPKSTRIEVFKDDDNPSQSTHHKNTQVQVQTTTSILPLKPVVDGNLAHETPVKPSLTSNASRSPTVTAFSKDAINEVFSMFNQHYSTPGALLDGDDTTTSKFNVFENFTQEFTAKNIEDLTEVKDPKQETVSQQTTSTNETNDRYERLSNSSTRPEKADYMTPIKETTETDVVPIIQTPKEQIRTEDKKSGDNTETQTQLTSTTIQSSPFLTQPEPQAEK
modifications: left off: GST, N-terminal, kept
notes: scBub1 fragment co-expressed with the kinase domain of scMps1 in bacteria
In the case of B2, the “binding to scMad1^E–scMad2 (in words)” value in the assay with scMad1^E–scMad2 complex [3] is recorded as “only the phosphorylated scBub1 bound to the scMad1^E–scMad2 complex”.

The record behind these values is PMC5268738, “A sequential multi-target Mps1 phosphorylation cascade promotes spindle checkpoint signaling” (eLife, 2017).
